From publication PMC9825669
Where “and” joins values, the source holds several entries; their conditions need not be identical. Equal entries are not always repeated.

Target: LtMCC α6β6 dodecamer (L. tarentolae (endogenous in L. tarentolae TATII/UC cells))
Assay: filament lengths counted on cryoEM micrographs

Substance: LtMCC α6β6 dodecamer (complex)
- stoichiometry N: 4 and 6
